Source: patent US20240294650A1 (Alector, published 2024)
Positions count from the first letter of the chain named. One block for each binder: values may come before it.

Assays:
[1] = molecular target: T1, endogenous murine MerTK on bone marrow-derived macrophages (mouse, UniProt Q60805 19-994); experiment: FACS, mouse BMDM, WT minus MerTK KO
T1 construct: whole, on cells; MFI on MerTK KO BMDM subtracted; also called BMDM WT-KO
T1 sequence (looked up): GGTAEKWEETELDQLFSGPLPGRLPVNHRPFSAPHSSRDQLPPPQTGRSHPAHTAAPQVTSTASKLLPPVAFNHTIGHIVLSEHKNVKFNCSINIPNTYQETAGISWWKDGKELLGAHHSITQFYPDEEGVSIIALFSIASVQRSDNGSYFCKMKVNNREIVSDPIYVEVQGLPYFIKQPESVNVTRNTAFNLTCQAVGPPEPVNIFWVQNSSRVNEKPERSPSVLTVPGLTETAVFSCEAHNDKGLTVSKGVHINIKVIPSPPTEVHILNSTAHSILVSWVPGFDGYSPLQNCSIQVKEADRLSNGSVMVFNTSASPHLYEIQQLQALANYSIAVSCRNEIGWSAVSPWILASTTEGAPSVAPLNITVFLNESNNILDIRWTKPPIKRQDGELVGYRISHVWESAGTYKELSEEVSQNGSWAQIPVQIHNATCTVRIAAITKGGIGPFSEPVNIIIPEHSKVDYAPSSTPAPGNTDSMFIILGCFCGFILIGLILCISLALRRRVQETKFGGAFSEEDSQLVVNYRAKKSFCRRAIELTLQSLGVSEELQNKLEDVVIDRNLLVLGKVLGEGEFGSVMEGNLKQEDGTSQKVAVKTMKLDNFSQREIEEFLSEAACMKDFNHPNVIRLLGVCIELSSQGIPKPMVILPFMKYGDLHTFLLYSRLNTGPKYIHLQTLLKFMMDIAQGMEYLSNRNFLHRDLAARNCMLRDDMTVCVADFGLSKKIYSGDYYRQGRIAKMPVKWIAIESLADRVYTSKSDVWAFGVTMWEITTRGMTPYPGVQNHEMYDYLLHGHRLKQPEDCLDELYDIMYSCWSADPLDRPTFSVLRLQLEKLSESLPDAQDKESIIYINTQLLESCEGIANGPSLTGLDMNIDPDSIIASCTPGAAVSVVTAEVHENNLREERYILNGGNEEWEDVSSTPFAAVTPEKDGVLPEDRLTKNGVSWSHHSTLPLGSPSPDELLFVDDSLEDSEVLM
Method: (§1) To determine whether recombinant anti-human MerTK antibodies of the present disclosure bind to human MerTK endogenously expressed on SK-MEL-5 cells and CHO cells overexpressing mouse MerTK (CHO-muMerTK OE cells), as compared to A375 and parental CHO cells as negative controls, the following experiments were performed. SK-MEL-5 cells, A375 cells, CHO-muMerTK OE cells, and CHO parental cells were plated at 100,000 cells/well. Anti-MerTK antibodies were added to the cells at 10 μg/ml. After 60 minutes on ice, cells were washed and then stained with PE-conjugated goat anti-human IgG antibody (Southern Biotech Cat #2040-09, Birmingham, AL) in the presence of Fc block solution on ice for 30 minutes, and then washed twice with cold FACS buffer (2% FBS in PBS). Mouse anti-human MerTK-PE conjugated (Biolegend, Clone 590H11G1E3) or anti-mouse MerTK-PE conjugated (ThermoFisher, Clone DS5MMER) antibodies were used as positive controls. Stained cells were acquired on a BD FACS Canto II cytometer and the mean fluorescence intensity (MFI) was calculated with FlowJo.
To confirm anti-MerTK antibody binding to endogenous murine MerTK, bone marrow-derived macrophages (BMDM) were isolated from MerTK wild type (WT) and knockout (KO) mice (The Jackson Laboratory, Cat #011122) using standard protocols. Briefly, cells isolated from the bone marrow were plated in the presence of 50 ng/ml M-CSF (R&D Systems, Cat #416-ML) for seven days to allow for differentiation into macrophages. Cell staining, FACs, and MFI were performed and calculated as described above.

[2] = molecular target: T2, mouse MerTK overexpressed on CHO cells (mouse, UniProt Q60805 19-994); experiment: FACS, CHO-muMerTK OE cells, 10 ug/ml
T2 construct: whole, on cells; also called CHO-muMerTK OE
T2 sequence (looked up): T1 sequence (looked up)
Method: as §1

[3] = molecular target: T3, Recombinant human MerTK-human Fc Chimera protein (human, UniProt Q12866 26-499, limits assumed); experiment: blocking ELISA, Gas6-His on MerTK-Fc, Ab 66.6 nM, isotype=100%
T3 construct: bought construct; also called MerTK-Fc (R&D systems, Cat #391-MR-100)
T3 sequence: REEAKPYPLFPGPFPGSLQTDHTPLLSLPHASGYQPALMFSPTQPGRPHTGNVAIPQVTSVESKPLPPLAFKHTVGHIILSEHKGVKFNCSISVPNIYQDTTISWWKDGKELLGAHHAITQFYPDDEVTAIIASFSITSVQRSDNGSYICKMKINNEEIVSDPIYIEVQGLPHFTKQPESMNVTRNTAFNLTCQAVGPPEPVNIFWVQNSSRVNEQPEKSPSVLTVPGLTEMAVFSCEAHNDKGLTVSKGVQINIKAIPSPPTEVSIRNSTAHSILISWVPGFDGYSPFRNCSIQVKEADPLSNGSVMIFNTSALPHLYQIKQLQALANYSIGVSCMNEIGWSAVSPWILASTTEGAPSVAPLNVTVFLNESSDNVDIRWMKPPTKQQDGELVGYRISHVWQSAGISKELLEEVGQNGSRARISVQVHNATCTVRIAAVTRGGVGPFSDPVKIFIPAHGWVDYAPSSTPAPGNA
Method: Briefly, rabbit anti-human IgG antibody (Jackson ImmunoResearch, Cat #309-005-008) was coated at 2 μg/ml onto high-protein binding plates at 4° C. overnight. After washing with 0.05% Tween20 in PBS three times, 5% BSA in PBS was added for 1 hour. Recombinant human MerTK-human Fe Chimera protein (R&D systems, Cat #391-MR-100) was added at 2 μg/ml for 1 hour and plates were washed before the addition of 40 μl of anti-MerTK hybridoma supernatants and 40 μl of His tag-conjugated recombinant Gas6 (R&D systems, Cat #885-GSB-050) at 3 μg/ml or His tag-conjugated recombinant ProS (R&D systems, Cat #9489-PS-100) at 20 μg/ml. After a further incubation for 1 hour, plates were washed and incubated for 1 hour with HRP-conjugated anti-6×His tagged antibody (Abcam, Cambridge, MA, Cat #ab1187). Plates were then washed and an HRP substrate, TMB, was added to develop the plates. The reaction was stopped by adding 50 μl 2N H₂SO₄ and the OD was measured using a spectrophotometer (BioTek).
Anti-MerTK antibodies were titrated to a final concentration from 66.6 nM to 4 pM and tested against anti-human MerTK antibody M6 (disclosed in WO2016/106221) or isotype control antibody.

- MFI [1]: 316 MFI
- MFI [2]: 234 MFI
- Percent Gas6 ligand binding [3]: 107%
B1: MTK-223 (antibody, human IgG1, V domains shown)
VH: DVQLQESGPGLVKPSQSLSLTCSVTGYSITSGYYWNWIRQFPGNKLEWMGYISYDGTNNYNPSLKNRISITRDTSENQFFLKLNSVTTEDTATYFCVRGAGYWGQGTTLTVSS
VL: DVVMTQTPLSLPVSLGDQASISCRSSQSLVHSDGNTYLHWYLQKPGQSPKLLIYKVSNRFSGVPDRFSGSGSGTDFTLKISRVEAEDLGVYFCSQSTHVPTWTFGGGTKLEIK

- MFI [1]: 7370 MFI
- MFI [2]: 17400 MFI
- Percent Gas6 ligand binding [3]: 110%
B2: MTK-228 (antibody, human IgG1, V domains shown)
VH: QDQLQQSGPELVKPGASVKISCKASGYSFTSYYIHWVKQRPGQGLEWVGWIFPGNGNTKYNERFKGKATLTADTSSSTAYMQLSSLTSEDSAVYYCARLGLIYALDYWGQGTSVTVSS
VL: DAVMTQTPLSLPVSLGDQASISCRSSQSLENSNGNTYLHWYLQKPGQSPQLLIYRVSNRFSGVLDRFSGSGSGTDFTLKISRVEAEDLGVYFCLQVTHVPFTFGSGTKLEIK

- MFI [1]: 11800 MFI
- MFI [2]: 13200 MFI
- Percent Gas6 ligand binding [3]: 112%
B3: MTK-218 (antibody, human IgG1, V domains shown)
VH: B2 VH with D2V, A16T, E46D, V48I, G56R, K59Q, R63K
VL: B2 VL with N35H, L64Q

- MFI [1]: 10400 MFI
- MFI [2]: 11500 MFI
- Percent Gas6 ligand binding [3]: 109%
B4: MTK-226 (antibody, human IgG1, V domains shown)
VH: B2 VH with D2V, V48I, R63N, K65R
VL: B2 VL with N31S, K79Q

- MFI [1]: 2870 MFI
- MFI [2]: 2000 MFI
- Percent Gas6 ligand binding [3]: 98.9%
B5: MTK-229 (antibody, human IgG1, V domains shown)
VH: QVQLQQSGPELVKPGASVKISCKASGYEFSRSWMNWVKQRPGKGLEWIGRIYPGDGDTNYKGKLKGQATLTADKSSSTAYMQLSSLTFEDSAVYFCARGGGYYYDSRYEGFVYWGQGTVVTVSA
VL: QIVLTQSPAIMSASPGEEVTMTCSASSSVSYMHWYQQKSGTSPKRWIYDTSKLASGVSGRFSGSGSGTSYSLTISSMEAEDAATYYCQQWSSNPPITFGAGTKLELK

- MFI [1]: 466 MFI
- Percent Gas6 ligand binding [3]: 110%
B6: MTK-215 (antibody, human IgG1, V domains shown)
VH: EVQLVESGGGLVKPGGSLKLSCAASGFIFSDYGMHWVRQAPEKGLEWVAYISSGSSTIYYGDTVKGRFTISRDNAKNTLFLQMTSLRSEDTAMYYCAKGGRYGAMDYWGHGTSVTVSS
VL: DIVLTQSPATLSVTPGDSVSLSCRASQSISNNLHWYQQKSHESPRLLIKNPSQSISGIPSRFGARGSGTDFTLIINSVETEDLGVYFCQQSNSWPFTFGSGTKLEIK

- MFI [1]: 5020 MFI
- MFI [2]: 14200 MFI
- Percent Gas6 ligand binding [3]: 99.9%
B7: MTK-227 (antibody, human IgG1, V domains shown)
VH: EVKLVESGGGLVQPGGSLSLSCAASGFTFTDNYMTWVRQPPGKALEWLGFSRNKANGYTTEYSASVKGRFTISRDSSQSILYLQMNALRAEDSGTYYCARFPPHYYAGGYFDVWGTGTTVTVSS
VL: DIQMTQSPASLSASVGETVTITCRASENIYSYLAWYQQKQGKSPQLLVYNAKTLAEGVPSRFSGSGSGTQFSLKINSLQPADFGSYYCQHYYRTPPTFGGGTKLEIK

- MFI [1]: 6180 MFI
- MFI [2]: 11400 MFI
- Percent Gas6 ligand binding [3]: 106%
B8: MTK-219 (antibody, human IgG1, V domains shown)
VH: QVQLQQSGADLMKPGASVKLSCKATGNTFTGYWIEWVKQRPGHGLEWIGEILTGSGSTNYNERFKGKATFTADTSSNTAYMQLSSLTTEDSAIYYCAGSYFTNSWFPYWGQGSLVTVSA
VL: DIVLTQSPASLAVSLGQRATISCRASESVDSYGNSFMHWYQQKPGQPPKLLIYRAYTLESGIPARFSGSGSRTDFTLTINPVEADDVATYYCQQSNEDPRTFGGGTKLEIK

- MFI [1]: 3680 MFI
- MFI [2]: 4760 MFI
- Percent Gas6 ligand binding [3]: 105%
B9: MTK-222 (antibody, human IgG1, V domains shown)
VH: B8 VH with N27Y, T58S, R63K, T74S, Y80F, F101Y, T102S
VL: B8 VL with A9V, N34S, Y56S, T57S, A84T

- MFI [1]: 757 MFI
- MFI [2]: 5800 MFI
- Percent Gas6 ligand binding [3]: 97%
B10: MTK-220 (antibody, V domains shown)
VH: EVQLVESGGGLVKPGGSLKLSCAASGFTFSDYGMHWVRQAPEKGLEWVAFISGGSGTIYYEDTVKGRFTISRDNAKNTLFLQMTSLRSEDTAMYYCTRGGNYFDYWGQGTTLTVSS
VL: NIMLTQSPSSLAVSAGEKVTMTCKSSQSVLYSSNQKNYLAWYQQKPGQSPKLLIYWASTRESGVPDRFTGSGSGTDFTLTISNVQAEDLAVYYCHQYFSSWTFGGGTKLEIK

- MFI [1]: 4490 MFI
- MFI [2]: 5160 MFI
- Percent Gas6 ligand binding [3]: 115%
B11: MTK-211 (antibody, human IgG1, V domains shown)
VH: QVQLQQSGAELMKPGASVKLSCKATGYTFTGYWIEWVKQRPGHGLEWIGEILPGSGGSNYNEKFKGKATFTADTSSNTAYIQLSSLTTEDSAIYCCARGEPSYFSDAGFAYWGQGTLVTVSA
VL: QIVLTQSPAVMSASPGEKVTMTCSASSSITYMHWYQQKPGTSPKRWIYDTSKLASGVPARFSGSGSGTSYFLTISSMEAEDVATYYCHQRSTYPYTFGGGTKLEIM

- MFI [1]: 8450 MFI
- MFI [2]: 12800 MFI
- Percent Gas6 ligand binding [3]: 102%
B12: MTK-213 (antibody, human IgG1, V domains shown)
VH: QVQLQQPGAELVKPGASVKMSCKASGYTFTSYWITWVKQRPGQGHEWIGEIYPGIGSTNYNEKFKSKATLTVDTSSRTAYMQLSSLTSEDSAVYFCARGAYTKYYFDYWGQGTTLTVSS
VL: DIVMTQSHKFMSTSVGDRVSITCKASQDVGDAVAWYQQKPGQTPKLLIYWASTRHTGVPDRFTGSGSGTDFTLTISNVQSEDLADYFCQQYSSYLMYTFGGGTKLEIK
